The target in assay [1] is T1, FcgRIIIa F extracellular domain with C-terminal His tag (human, UniProt P08637 17-208).
T1 construct: extracellular domain; also called FcγRIIIa F; FcγRIIIa (F158); not shown: His tag attached to the C terminus
As to the kind of experiment: ratio of SPR (Biacore) KDs, FcγRIIb as reference. The method, then: (§1) The prepared antibodies were assayed as to the KDs for FcγRIIIa and FcγRIIb according to the method described in Reference Example 2.
(§2) Analysis of interaction between objective antibody and the FcγR was carried out using Biacore T100 (GE Healthcare). HBS-EP+ (GE Healthcare) was used as the running buffer, and the measurement temperature was set to 25° C. Chips produced by immobilizing the antigen peptide by the amine coupling method to a Series S Sencor Chip CM5 (GE Healthcare), or alternatively, chips produced by allowing preliminarily biotinylated antigen peptides to interact with and immobilize onto a Series S Sensor Chip SA (certified) (GE Healthcare) were used. Antibodies of interest were captured onto an antigen peptide-immobilized chip, and allowed to interact to each FcγR diluted with running buffer. To regenerate and repeatedly use the chip, the antibodies captured on the chip were washed off by reacting 10 mM glycine-HCl, pH 1.5.
(§3) The FcγR-binding activity of each antibody was assessed primarily using as an indicator the FcγR-binding activity and dissociation constant for FcγR.

Assay [2] deals with T2, FcgRIIb extracellular domain with C-terminal His tag (human, UniProt P31994 43-217).
T2 construct: extracellular domain; also called FcγRIIb; not shown: His tag attached to the C terminus
T2 sequence (looked up): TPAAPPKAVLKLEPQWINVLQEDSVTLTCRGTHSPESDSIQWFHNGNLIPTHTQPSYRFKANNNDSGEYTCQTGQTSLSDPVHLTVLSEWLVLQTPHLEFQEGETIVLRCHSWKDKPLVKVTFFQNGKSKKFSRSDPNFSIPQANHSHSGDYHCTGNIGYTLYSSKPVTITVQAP
As to the kind of experiment: SPR (Biacore T100), antibody captured on antigen peptide chip, FcγR extracellular domain as analyte, kinetic analysis. The method, then:
as §1, §2, §3

Assay [3] concerns the target T1, FcgRIIIa F extracellular domain with …. The description is as above. As to the method: as §1, §2, §3

From patent US20180155451A1 (published 2018) come the findings set out here.

T1 sequence (P08637 17-208): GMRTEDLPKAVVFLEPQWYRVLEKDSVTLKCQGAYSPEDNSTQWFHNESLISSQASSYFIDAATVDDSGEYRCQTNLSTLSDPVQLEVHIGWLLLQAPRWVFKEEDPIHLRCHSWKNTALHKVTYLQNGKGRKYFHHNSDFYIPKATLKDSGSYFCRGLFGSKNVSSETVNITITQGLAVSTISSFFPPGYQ

B1: GpH7-TA7/GpH7-B3/GpL16-k0 (antibody, human IgG1, kappa)
heavy 1: QVQLVQSGAEVKKPGASVTVSCKASGYTFTDYEMHWIRQPPGEGLEWIGAIDPKTGDTAYSESFQDRVTLTADKSTSTAYMELSSLTSEDTAVYYCTRFYSYTYWGQGTLVTVSSASTKGPSVFPLAPSSKSTSGGTAALGCLVKDYFPEPVTVSWNSGALTSGVHTFPAVLQSSGLYSLSSVVTVPSSSLGTQTYICNVNHKPSNTKVDKKVEPKSCDKTHTCPPCPAPEYLWGPSVFLFPPKPKDTLMISRTPEVTCVVVDVSHEDPEVKFNWYVDGVEVHNAKTKPREEQYNATYRVVSVLTVLHQDWLNGKEYKCKVSNKALPAPIEKTISKAKGQPREPQVYTLPPSRKELTKNQVSLTCLVKGFYPSDIAVEWESNGQPENNYKTTPPVLDSDGSFFLYSKLTVDKSRWQQGNVFSCSVMHEALHNRYTQKSLSLSP
heavy 2: not shown
light: DIVMTQSPLSLPVTPGEPASISCQASESLVHSNRNTYLHWYLQKPGQSPQLLIYKVSNRFSGVPDRFSGSGSGTDFTLKISRVEAEDVGVYYCSQNTHVPPTFGQGTKVEIERTVAAPSVFIFPPSDEQLKSGTASVVCLLNNFYPREAKVQWKVDNALQSGNSQESVTEQDSKDSTYSLSSTLTLSKADYEKHKVYACEVTHQGLSSPVTKSFNRGEC
notes: L234Y/G236W/S298A in one H chain only; also called TA7/B3
What is called Kd is the equilibrium constant for the complex coming apart. The low end stands for a tighter complex, the high end for a looser complex. Take B1: the “FcγRIIIa F/FcγRIIb ratio (KD for FcγRIIb / KD for FcγRIIIa F)” value in assay [1] was found to be 14. Also, the Kd was 4500 nM in assay [2] and 320 nM in assay [3].

B2: GpH7-TA7/GpH7-TA45/GpL16-k0 (antibody, human IgG1, kappa)
heavy 1: QVQLVQSGAEVKKPGASVTVSCKASGYTFTDYEMHWIRQPPGEGLEWIGAIDPKTGDTAYSESFQDRVTLTADKSTSTAYMELSSLTSEDTAVYYCTRFYSYTYWGQGTLVTVSSASTKGPSVFPLAPSSKSTSGGTAALGCLVKDYFPEPVTVSWNSGALTSGVHTFPAVLQSSGLYSLSSVVTVPSSSLGTQTYICNVNHKPSNTKVDKKVEPKSCDKTHTCPPCPAPEYLWGPSVFLFPPKPKDTLMISRTPEVTCVVVDVSHEDPEVKFNWYVDGVEVHNAKTKPREEQYNATYRVVSVLTVLHQDWLNGKEYKCKVSNKALPAPIEKTISKAKGQPREPQVYTLPPSRKELTKNQVSLTCLVKGFYPSDIAVEWESNGQPENNYKTTPPVLDSDGSFFLYSKLTVDKSRWQQGNVFSCSVMHEALHNRYTQKSLSLSP
heavy 2: QVQLVQSGAEVKKPGASVTVSCKASGYTFTDYEMHWIRQPPGEGLEWIGAIDPKTGDTAYSESFQDRVTLTADKSTSTAYMELSSLTSEDTAVYYCTRFYSYTYWGQGTLVTVSSASTKGPSVFPLAPSSKSTSGGTAALGCLVKDYFPEPVTVSWNSGALTSGVHTFPAVLQSSGLYSLSSVVTVPSSSLGTQTYICNVNHKPSNTKVDKKVEPKSCDKTHTCPPCPAPEYLWGPSVFLFPPKPKDTLMISRTPEVTCVVVDVSHEDPEVKFNWYVDGVEVHNAKTKPREEQYNATYRVVSVLTVLHQDWLNGKEYKCKVSNKALPAPIEKTISKAKGQPREPQVYTLPPSRDELTKNQVSLTCLVKGFYPSDIAVEWESNGQPENNYKTTPPVLDSDGSFFLYSKLTVDKSRWQQGNVFSCSVMHEALHNHYTQESLSLSP
light: DIVMTQSPLSLPVTPGEPASISCQASESLVHSNRNTYLHWYLQKPGQSPQLLIYKVSNRFSGVPDRFSGSGSGTDFTLKISRVEAEDVGVYYCSQNTHVPPTFGQGTKVEIERTVAAPSVFIFPPSDEQLKSGTASVVCLLNNFYPREAKVQWKVDNALQSGNSQESVTEQDSKDSTYSLSSTLTLSKADYEKHKVYACEVTHQGLSSPVTKSFNRGEC
notes: L234Y/G236W/S298A in both H chains (called homodimerized); also called TA7/TA45
As to B2, the “FcγRIIIa F/FcγRIIb ratio (KD for FcγRIIb / KD for FcγRIIIa F)” value in assay [1] was found to be 5.3. Also, the Kd in assay [2] was found to be 18000 nM; in assay [3], 3300 nM.

B3: GpH7-TA7/GpH7-B78/GpL16-k0 (antibody, human IgG1, kappa)
heavy 1: QVQLVQSGAEVKKPGASVTVSCKASGYTFTDYEMHWIRQPPGEGLEWIGAIDPKTGDTAYSESFQDRVTLTADKSTSTAYMELSSLTSEDTAVYYCTRFYSYTYWGQGTLVTVSSASTKGPSVFPLAPSSKSTSGGTAALGCLVKDYFPEPVTVSWNSGALTSGVHTFPAVLQSSGLYSLSSVVTVPSSSLGTQTYICNVNHKPSNTKVDKKVEPKSCDKTHTCPPCPAPEYLWGPSVFLFPPKPKDTLMISRTPEVTCVVVDVSHEDPEVKFNWYVDGVEVHNAKTKPREEQYNATYRVVSVLTVLHQDWLNGKEYKCKVSNKALPAPIEKTISKAKGQPREPQVYTLPPSRKELTKNQVSLTCLVKGFYPSDIAVEWESNGQPENNYKTTPPVLDSDGSFFLYSKLTVDKSRWQQGNVFSCSVMHEALHNRYTQKSLSLSP
heavy 2: QVQLVQSGAEVKKPGASVTVSCKASGYTFTDYEMHWIRQPPGEGLEWIGAIDPKTGDTAYSESFQDRVTLTADKSTSTAYMELSSLTSEDTAVYYCTRFYSYTYWGQGTLVTVSSASTKGPSVFPLAPSSKSTSGGTAALGCLVKDYFPEPVTVSWNSGALTSGVHTFPAVLQSSGLYSLSSVVTVPSSSLGTQTYICNVNHKPSNTKVDKKVEPKSCDKTHTCPPCPAPELLGGPDVFLFPPKPKDTLMISRTPEVTCVVVDVSHEDPEVKFNWYVDGVEVHNAKTKPREEQYNSTYRVVSVLTVLHQDWLNGKEYKCKVSNKALPLPEEKTISKAKGQPREPQVYTLPPSRDELTKNQVSLTCLVKGFYPSDIAVEWESNGQPENNYKTTPPVLDSDGSFFLYSKLTVDKSRWQQGNVFSCSVMHEALHNHYTQESLSLSP
light: DIVMTQSPLSLPVTPGEPASISCQASESLVHSNRNTYLHWYLQKPGQSPQLLIYKVSNRFSGVPDRFSGSGSGTDFTLKISRVEAEDVGVYYCSQNTHVPPTFGQGTKVEIERTVAAPSVFIFPPSDEQLKSGTASVVCLLNNFYPREAKVQWKVDNALQSGNSQESVTEQDSKDSTYSLSSTLTLSKADYEKHKVYACEVTHQGLSSPVTKSFNRGEC
notes: L234Y/G236W/S298A in one H chain, S239D/A330L/I332E in the other; also called TA7/B78
For the molecule B3, in assay [1], the “FcγRIIIa F/FcγRIIb ratio (KD for FcγRIIb / KD for FcγRIIIa F)” value is 244. In addition, the figures for the Kd in assay [2] and in assay [3] were 1100 nM and 4.7 nM, respectively.
